Source: patent publication US20240009137A1, “ORAL THERAPEUTIC DELIVERY” (ROYAL MELBOURNE INSTITUTE OF TECHNOLOGY, priority 2020, published 2024)
Where “and” joins values, the source holds several entries; their conditions need not be identical. Equal values may be shown once.

Assays:
chymotrypsin = biological target: T1, chymotrypsin (Bos taurus, UniProt P00766); test: Enzymatic degradation of insulin by chymotrypsin followed by synchrotron CD (Dichroweb); format: in vitro ADME
T1 construct: purchased Sigma Aldrich (Australia)
Method: SR-CD measurements were conducted in the 170-350 nm region using the CD beamline of the synchrotron radiation source ASTRID2 at ISA, Centre for Storage Ring Facilities at Aarhus University (Denmark). Suprasil Quartz cells (Hellma GmbH & Co., Germany) of nominal 0.1 mm path length (actual calibrated path lengths=102.3 and […]), requiring an approximately 30 μl sample volume, were used for measurements at 37° C. in a temperature-regulated sample holder. […] The sample measurements were obtained at 1 nm increments in wavelength, 1 sec averaging time and 1 scan for each sample. Data were mildly smoothed with a 5-point moving mean in Matlab. The online service DichroWeb was used for secondary structure content analysis of the CD spectra using the CONTIN routine and the SP175 reference set.
Chymotrypsin, which is typically found in the small intestine, was utilized as a model enzyme.

[1] = Fluorescence recovery after photobleaching (FRAP), diffusion coefficient; format: physicochemical
Method: FRAP was performed on a Nikon confocal microscope. […] A bleaching and background region of interest (ROI) was used to selectively photobleach an area of the cubic phase and the fluorescence recovery curve was recorded with time. The excitation/emission wavelengths used were 553/627 nm for the octadecyl rhodamine B chloride. […] […] The open source Matlab code frap_analysis_2p5 was used to determine diffusion coefficients μ from FRAP data.

[2] = Release of insulin from bulk cubic phase (A280 of supernatant; Ritger-Peppas and Higuchi fits); format: physicochemical
Method: This mixture was then injected into a 1.5 mL Eppendorf tube and centrifuged at 1200 RPM for 1 min to achieve a flat surface. The height of this surface was measured to determine the diameter for subsequent surface area calculations. 150 μl of water was added on top of the cubic phase and immediately removed for T=0 time point. 150 μl of supernatant fluid was removed every 30 min over a 12 hour period for analysis and replaced with a further […] of water. A final reading was taken at 22 hour.
Mt, M0, k and n are the released quantity at time t, initial quantity encapsulated, fitting coefficient and fitting exponent, respectively. This allows for the coupling of multiple release mechanisms (e.g., diffusion-controlled, zero-order) where the diffusional exponent n, is indicative of the release mechanism and geometry of the interface and the fitting coefficient k reflects characteristics of both the matrix and the solute.
where Q, C0 and D are the released concentration per unit area, initial concentration per unit volume and the diffusion coefficient, respectively. Diffusion control dictates that the release profile against √t should be linear. […] The determined parameters were compared to those found during FRAP analysis (DFRAP).

[3] = previously provided in the literature; cited from earlier work
[4] = insulin in water 0.2 mg/ml, chymotrypsin 0.02 mg/ml, time 0 min
[5] = insulin in water 0.2 mg/ml, chymotrypsin 0.02 mg/ml, time 2 min
[6] = insulin in water 0.2 mg/ml, chymotrypsin 0.02 mg/ml, time 12 min

## Insulin: human recombinant insulin (Sigma Aldrich); FITC labelled insulin used for FRAP; free or encapsulated in MO or PT cubic phase
chymotrypsin; insulin 0.2 mg/ml encapsulated in PT cubic phase, 30 min after addition of chymotrypsin
  far UV CD spectrum, secondary structure: still largely a-helical
chymotrypsin; insulin 0.2 mg/ml in water, 30 min after addition of chymotrypsin
  far UV CD spectrum, secondary structure: largely unordered
chymotrypsin; insulin 0.5 mg/ml in MO bulk cubic phase, 132 min after addition of chymotrypsin 0.05 mg/ml
  near-UV CD minimum at 270 nm: may still be observed
chymotrypsin; insulin encapsulated in PT cubic phase, 2 hours after addition of chymotrypsin
  far UV CD spectrum, secondary structure: retention of a-helical structures
chymotrypsin; insulin in lipid nanocarrier in the form of a mesophase
  duration of protection against enzymatic degradation after addition of chymotrypsin: at least 2 hours
chymotrypsin; insulin in solution 0.5 mg/ml, chymotrypsin 0.05 mg/ml
  time by which the near-UV CD minimum at 270 nm has essentially disappeared: ≤ 9 min
chymotrypsin; [4]
  Unordered(%): 8%
  β-sheet(%): 0%
  β-turns(%): 3%
chymotrypsin; [5]
  β-sheet(%): 0%
  β-turns(%): 9%
chymotrypsin; insulin in water 0.2 mg/ml, chymotrypsin 0.02 mg/ml, time 6 min
  β-sheet(%): 2%
chymotrypsin; [6]
  Unordered(%): 41%
  α-helix(%): 41% and 41.2%
chymotrypsin; insulin in water, no protective matrix, chymotrypsin added
  time to complete degradation: less than 35 min
[1]; MO QII^D phase at the water interface (DFRAP)
  Diffusion Coefficient: 2.89 ×10^−6 cm^2 s^−1
[1]; PT QII^D phase at the water interface (DFRAP)
  Diffusion Coefficient: 4.36 ×10^−6 cm^2 s^−1
[1]; in MO QII^D bulk cubic phase (insulin: FITC labelled, 5 mg/ml)
  Diffusion Coefficient: 2.29 ×10^−6 cm^2 s^−1
[1]; in PT QII^D bulk cubic phase (insulin: FITC labelled, 5 mg/ml)
  Diffusion Coefficient: 4.17 ×10^−6 cm^2 s^−1
[1]; in solution (free, FITC labelled insulin)
  Diffusion Coefficient: 6.56 ×10^−6 cm^2 s^−1
[1]; in solution (free, FITC labelled insulin), listed as insulin
  Diffusion Coefficient: 6.6 ×10^−6 cm^2 s^−1
[1]; stated for both lipids (MO and PT)
  diffusion coefficient higher at the interface compared to in the bulk: approximately 15%
[2]; from MO bulk cubic phase
  insulin released over the first two hours: approximately 15%
  release over a 24 h period: approximately 50%
[2]; from PT bulk cubic phase
  insulin released over the first two hours: approximately 25%
  release over a 24 h period: 60%
[2]; from the cubic phase (lipid not specified)
  insulin released over 2-hour time period: approximately 20%
[2]; insulin release from MO
  k, fitting coefficient (Ritger-Peppas model): 0.88 ± 0.06
[2]; release from MO bulk cubic phase into aqueous sink
  time to 20% release: ~4 h
[2]; release from PT bulk cubic phase into aqueous sink
  time to 20% release: ~2 h
[3]
  diffusion coefficient in water: 1.5 ×10^−6 cm^2 s^−1
